From publication PMC2939592, “Laser ablation-based one-step generation and bio-functionalization of gold nanoparticles conjugated with aptamers” come the findings set out here.

The series deals with PSMA (prostate-specific membrane antigen) (human, UniProt Q04609 1-750). Nature of the series: tissue microarray staining with silver enhancement; 1 mM MgCl2, 1 mM CaCl2; epithelial staining similar to anti-PSMA antibody; extra smooth muscle staining; miniStrep: 50 mM Tris-Cl pH 8.0, 150 mM NaCl, 10 mM MgCl2, room temperature (16 h in solution); anti-PSMA: 20 mM HEPES pH 7.4, 150 mM NaCl, 1 mM MgCl2, 1 mM CaCl2, 0.05% Tween 20, 20 C. The settings on record: protein: native; chain copies: 2; label: AuNP.
PSMA (prostate-specific membrane antigen), sequence (Q04609 whole entry): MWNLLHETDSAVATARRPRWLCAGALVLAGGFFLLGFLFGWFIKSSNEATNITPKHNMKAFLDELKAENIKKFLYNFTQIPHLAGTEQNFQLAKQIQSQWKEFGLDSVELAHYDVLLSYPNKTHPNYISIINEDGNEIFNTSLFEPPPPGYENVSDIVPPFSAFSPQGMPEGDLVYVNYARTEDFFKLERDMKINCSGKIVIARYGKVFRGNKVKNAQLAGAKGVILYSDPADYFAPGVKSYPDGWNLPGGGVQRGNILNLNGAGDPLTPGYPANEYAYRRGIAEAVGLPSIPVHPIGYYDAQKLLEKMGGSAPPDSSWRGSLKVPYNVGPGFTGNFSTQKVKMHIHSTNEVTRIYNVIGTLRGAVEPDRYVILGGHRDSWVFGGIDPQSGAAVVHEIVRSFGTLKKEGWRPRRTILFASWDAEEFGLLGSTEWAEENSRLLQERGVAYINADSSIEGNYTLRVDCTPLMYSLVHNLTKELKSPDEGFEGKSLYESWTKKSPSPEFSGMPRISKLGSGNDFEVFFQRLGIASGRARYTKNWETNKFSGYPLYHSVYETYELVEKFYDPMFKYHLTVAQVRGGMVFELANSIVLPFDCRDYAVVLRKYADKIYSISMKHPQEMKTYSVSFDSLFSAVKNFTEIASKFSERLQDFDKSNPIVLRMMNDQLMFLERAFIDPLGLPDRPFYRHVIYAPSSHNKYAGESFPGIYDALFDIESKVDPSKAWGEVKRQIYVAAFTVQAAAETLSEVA

B1: anti-PSMA aptamer on AuNP (structured_RNA)
RNA: GGGAGGACGAUGCGGAUCAGCCAUGUUUACGUCACUCCUUGUCAAUCCUCAUCGGCAGACGACUCGCCCGA
modifications: 3'-(CH2CH2O)6-(CH2)6-S-S-(CH2)6OH, conjugated to gold nanoparticle; base/sugar modifications not stated
Consider B1, for which the binding result is reported as “binds”.
